Reference: patent publication US20190054150A1 (AEQUUS BIOPHARMA, published 2019)
Square brackets hold non-standard residues; d marks the D form. Ends that are not written are not given here. Nle = CCCC[C@H](N)C(=O)O; βAla = NCCC(=O)O

Tests used:
Assay in all cases: cell-based or functional assay
[1] = target: MCR1 (human, UniProt Q01726 1-317)
[2] = target: MCR3 (human, UniProt P41968 1-323)
[3] = target: MCR4 (human, UniProt P32245 1-332)
[4] = target: MCR5 (human, UniProt P33032 1-325)
Chain of MCR5 (P33032 whole entry): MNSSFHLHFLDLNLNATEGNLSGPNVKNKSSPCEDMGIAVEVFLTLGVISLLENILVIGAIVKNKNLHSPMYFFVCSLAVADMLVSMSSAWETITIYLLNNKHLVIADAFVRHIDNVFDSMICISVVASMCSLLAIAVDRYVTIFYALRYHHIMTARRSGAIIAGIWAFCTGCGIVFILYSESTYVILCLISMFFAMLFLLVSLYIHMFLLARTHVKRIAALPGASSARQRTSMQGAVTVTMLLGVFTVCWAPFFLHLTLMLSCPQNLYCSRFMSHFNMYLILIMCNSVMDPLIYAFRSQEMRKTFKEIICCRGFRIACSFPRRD

Chain of MCR1 (Q01726 whole entry): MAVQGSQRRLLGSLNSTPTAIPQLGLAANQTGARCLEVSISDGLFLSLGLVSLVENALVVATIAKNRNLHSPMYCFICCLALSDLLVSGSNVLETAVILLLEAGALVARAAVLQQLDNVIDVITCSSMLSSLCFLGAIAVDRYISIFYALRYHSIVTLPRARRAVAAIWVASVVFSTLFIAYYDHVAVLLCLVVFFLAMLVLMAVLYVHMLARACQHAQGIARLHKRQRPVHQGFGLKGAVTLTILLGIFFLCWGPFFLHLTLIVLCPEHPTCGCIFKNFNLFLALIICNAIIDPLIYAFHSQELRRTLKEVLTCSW
Chain of MCR3 (P41968 whole entry): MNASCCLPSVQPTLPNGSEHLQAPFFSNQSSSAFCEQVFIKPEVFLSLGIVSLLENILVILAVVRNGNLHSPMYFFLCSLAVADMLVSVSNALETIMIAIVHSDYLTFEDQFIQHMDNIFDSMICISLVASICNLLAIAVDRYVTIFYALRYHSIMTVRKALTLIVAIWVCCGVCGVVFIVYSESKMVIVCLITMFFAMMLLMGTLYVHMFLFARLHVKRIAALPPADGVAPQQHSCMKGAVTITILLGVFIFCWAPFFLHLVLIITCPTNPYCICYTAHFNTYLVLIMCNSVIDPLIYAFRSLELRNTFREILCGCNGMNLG
Chain of MCR4 (P32245 whole entry): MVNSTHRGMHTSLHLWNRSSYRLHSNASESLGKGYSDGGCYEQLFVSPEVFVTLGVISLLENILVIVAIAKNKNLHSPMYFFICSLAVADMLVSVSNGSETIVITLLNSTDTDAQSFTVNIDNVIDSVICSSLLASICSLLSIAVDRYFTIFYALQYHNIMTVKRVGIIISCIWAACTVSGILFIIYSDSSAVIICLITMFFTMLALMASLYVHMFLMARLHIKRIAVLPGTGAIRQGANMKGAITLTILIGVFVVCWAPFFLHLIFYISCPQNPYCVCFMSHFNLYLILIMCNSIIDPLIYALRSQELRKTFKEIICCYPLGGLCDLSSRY

Binder | MCR1 EC50 (nM); cAMP production, LANCE cAMP assay, CHO-MCR1 cells, cell pool B [1] | MCR3 EC50 (nM); cAMP production, LANCE cAMP assay, CHO-MCR3 cells, cell pool B [2] | MCR4 EC50 (nM); cAMP production, LANCE cAMP assay, CHO-MCR4 cells, cell pool B [3] | further results
XEHXRWSYSMEHFRWGKPVGKKRRPVKVYP (Nle at position 1 and dPhe at position 4 as printed: Nle-EH-dPhe-RWSYSMEHFRWGKPVGKKRRPVKVYP) [NDP-ACTH4-9-ACTH1-24] | 0.17 nM | 6.8 nM | 0.8 nM | 
SYSMEHFRWGKPVGAARRPVKVYPSYS[Nle]EH[dF]RWGKPV (ends and bridges not checked) [ACTH1-24-point-1-2-NDP-α-MSH] |  |  |  | MCR1 EC50 (nM); cAMP production, LANCE cAMP assay, CHO-MCR1 cells, cell pool C [1]: 0.28 nM; MCR3 EC50 (nM); cAMP production, LANCE cAMP assay, CHO-MCR3 cells, cell pool C [2]: 0.72 nM; MCR4 EC50 (nM); cAMP production, LANCE cAMP assay, CHO-MCR4 cells, cell pool C [3]: 1.4 nM; MCR5 EC50 (nM); cAMP production, LANCE cAMP assay, CHO-MCR5 cells, cell pool C [4]: 21 nM
[Nle]EH[dF]RW[βAla]G[βAla][Nle]EH[dF]RW [NDP-ACTH4-9-βAla-G-βAla-NDP-ACTH4-9] | 0.35 nM | 25 nM | 6.7 nM | 
ACTH1-24-linker-Furin site-linker-NDP-α-MSH (ends and bridges not checked) peptide: SYSMEHFRWGKPVGKKRRPVKVYPGGGGSRRKRGGGGSSYS[Nle]EH[dF]RWGKPV | 0.202 nM | 0.453 nM | 1.9 nM | 
ACTH1-24-linker-MMP site-linker-NDP-α-MSH (ends and bridges not checked) peptide: SYSMEHFRWGKPVGKKRRPVKVYPGGGGSPLGLWAGGGGSSYS[Nle]EH[dF]RWGKPV | 1.6 nM | 4.7 nM | 5.8 nM | 
ACTH1-24-natural N-terminal spacer-α-MSH (peptide) peptide: SYSMEHFRWGKPVGKKRRPVKVYPPLPEGGPEPRSDGAKPGPREGKRSYSMEHFRWGKPV | 0.82 nM | 6.2 nM | > 20 nM | 
NDP-α-MSH-linker-Furin site-linker-ACTH1-24 (peptide) peptide: Ac-SYS[Nle]EH[dF]RWGKPVGGGGSRRKRGGGGSSYSMEHFRWGKPVGKKRRPVKVYP | 0.333 nM | 4 nM | 6.5 nM | 
NDP-α-MSH-linker-MMP (broad) site-linker-ACTH1-24 (peptide) peptide: Ac-SYS[Nle]EH[dF]RWGKPVGGGGSPAGLVAGGGGSSYSMEHFRWGKPVGKKRRPVKVYP | 0.295 nM | 1.5 nM | 1.9 nM | 
ACTH1-24-natural N-terminal spacer-NDP-α-MSH (ends and bridges not checked) peptide: SYSMEHFRWGKPVGKKRRPVKVYPPLPEGGPEPRSDGAKPGPREGKRSYS[Nle]EH[dF]RWGKPV | 0.63 nM | 0.62 nM | 1.6 nM | 
SYSMEHFRWGKPVGKKRRAVKVYP [ACTH1-24-point-5] |  |  |  | MCR1 EC50 (nM); cAMP production, LANCE cAMP assay, CHO-MCR1 cells, cell pool C [1]: 0.31 nM; MCR3 EC50 (nM); cAMP production, LANCE cAMP assay, CHO-MCR3 cells, cell pool C [2]: 10 nM; MCR4 EC50 (nM); cAMP production, LANCE cAMP assay, CHO-MCR4 cells, cell pool C [3]: 60 nM; MCR5 EC50 (nM); cAMP production, LANCE cAMP assay, CHO-MCR5 cells, cell pool C [4]: > 100 nM
ACTH1-24-natural C-terminal spacer-NDP-α-MSH (ends and bridges not checked) peptide: SYSMEHFRWGKPVGKKRRPVKVYPELTGQRLREGDGPDGPADDGAGASYS[Nle]EH[dF]RWGKPV | 0.8 nM | 1.66 nM | 8.7 nM | 
XEHXRWAGASYSMEHFRWGKPVGKKRRPVKVYP (Nle, dPhe and β-Ala residues as printed: Nle-EH-dPhe-RW-β-Ala-G-β-Ala-SYSMEHFRWGKPVGKKRRPVKVYP) [NDP-ACTH4-9-βAla-G-βAla-ACTH1-24] | 0.16 nM | 5.5 nM | 2.4 nM | 
SYSMEHFRWGKPVGKKAAAVKVYPSYS[Nle]EH[dF]RWGKPV [ACTH1-24-point-3-5-NDP-α-MSH] |  |  |  | MCR1 EC50 (nM); cAMP production, LANCE cAMP assay, CHO-MCR1 cells, cell pool C [1]: 0.32 nM; MCR3 EC50 (nM); cAMP production, LANCE cAMP assay, CHO-MCR3 cells, cell pool C [2]: 0.92 nM; MCR4 EC50 (nM); cAMP production, LANCE cAMP assay, CHO-MCR4 cells, cell pool C [3]: 2.2 nM; MCR5 EC50 (nM); cAMP production, LANCE cAMP assay, CHO-MCR5 cells, cell pool C [4]: 25 nM
SYSMEHFRWGKPVGKKRRPVKVYPSYS[Nle]EH[dF]RWGKPV (ends and bridges not checked) [ACTH1-24-NDP-α-MSH] |  |  |  | MCR1 EC50 (nM); cAMP production, LANCE cAMP assay, CHO-MCR1 cells, cell pool C [1]: 0.28 nM; MCR3 EC50 (nM); cAMP production, LANCE cAMP assay, CHO-MCR3 cells, cell pool C [2]: 1.5 nM; MCR4 EC50 (nM); cAMP production, LANCE cAMP assay, CHO-MCR4 cells, cell pool C [3]: 2.3 nM; MCR5 EC50 (nM); cAMP production, LANCE cAMP assay, CHO-MCR5 cells, cell pool C [4]: 24 nM
SYSMEHFRWGKPVGKKRRPVKVYPGGGGSRRKRSYS[Nle]EH[dF]RWGKPV [ACTH1-24-proconvertase-NDP-α-MSH] | 0.44 nM | 0.51 nM | 1.6 nM | 
SYSMEHFRWGKPVGAARRPVKVYP [ACTH1-24-point-1-2] |  |  |  | MCR1 EC50 (nM); cAMP production, LANCE cAMP assay, CHO-MCR1 cells, cell pool C [1]: 0.43 nM; MCR3 EC50 (nM); cAMP production, LANCE cAMP assay, CHO-MCR3 cells, cell pool C [2]: 10 nM; MCR4 EC50 (nM); cAMP production, LANCE cAMP assay, CHO-MCR4 cells, cell pool C [3]: 62 nM; MCR5 EC50 (nM); cAMP production, LANCE cAMP assay, CHO-MCR5 cells, cell pool C [4]: 275 nM
SYSXEHXRWGKPVGKKRRPVKVYP (Nle and DPhe as printed: SYS-Nle-EH-DPhe-RWGKPVGKKRRPVKVYP) [NDP-ACTH] |  |  |  | MCR1 EC50 (nM); cAMP production, LANCE cAMP assay, CHO-MCR1 cells, cell pool C [1]: 0.11 nM; MCR3 EC50 (nM); cAMP production, LANCE cAMP assay, CHO-MCR3 cells, cell pool C [2]: 0.21 nM; MCR4 EC50 (nM); cAMP production, LANCE cAMP assay, CHO-MCR4 cells, cell pool C [3]: 0.22 nM; MCR5 EC50 (nM); cAMP production, LANCE cAMP assay, CHO-MCR5 cells, cell pool C [4]: 1.1 nM
SYSMEHFRWGKPVGKKRRAVKVYPSYS[Nle]EH[dF]RWGKPV [ACTH1-24-point-5-NDP-α-MSH] |  |  |  | MCR1 EC50 (nM); cAMP production, LANCE cAMP assay, CHO-MCR1 cells, cell pool C [1]: 0.44 nM; MCR3 EC50 (nM); cAMP production, LANCE cAMP assay, CHO-MCR3 cells, cell pool C [2]: 1.5 nM; MCR4 EC50 (nM); cAMP production, LANCE cAMP assay, CHO-MCR4 cells, cell pool C [3]: 3.4 nM; MCR5 EC50 (nM); cAMP production, LANCE cAMP assay, CHO-MCR5 cells, cell pool C [4]: 28 nM
NDP-α-MSH-linker-MMP site-linker-ACTH1-24 (peptide) peptide: Ac-SYS[Nle]EH[dF]RWGKPVGGGGSPLGLWAGGGGSSYSMEHFRWGKPVGKKRRPVKVYP | 2.4 nM | 17 nM | 14 nM | 
YVMGHFRWDRFGRRNSSSSGSSGAGQSYSMEHFRWGKPVGKKRRPVKVYP [γ-MSH-ACTH1-24 linker without cleavable site] |  |  |  | MCR1 EC50 (nM); cAMP production, LANCE cAMP assay, CHO-MCR1 cells, cell pool A [1]: 11 nM; MCR3 EC50 (nM); cAMP production, LANCE cAMP assay, CHO-MCR3 cells, cell pool A [2]: 16 nM
SYSMEHFRWGKPVGKKAAAVKVYP [ACTH1-24-point-3-5] |  |  |  | MCR1 EC50 (nM); cAMP production, LANCE cAMP assay, CHO-MCR1 cells, cell pool C [1]: 0.54 nM; MCR3 EC50 (nM); cAMP production, LANCE cAMP assay, CHO-MCR3 cells, cell pool C [2]: 14 nM; MCR4 EC50 (nM); cAMP production, LANCE cAMP assay, CHO-MCR4 cells, cell pool C [3]: 128 nM; MCR5 EC50 (nM); cAMP production, LANCE cAMP assay, CHO-MCR5 cells, cell pool C [4]: > 100 nM
ACTH1-24-linker-MMP (broad) site-linker-NDP-α-MSH (ends and bridges not checked) peptide: SYSMEHFRWGKPVGKKRRPVKVYPGGGGSPAGLVAGGGGSSYS[Nle]EH[dF]RWGKPV | 0.528 nM | 1 nM | 4.8 nM | MCR1 EC50 (nM); cAMP production, LANCE cAMP assay, CHO-MCR1 cells, cell pool B (second value printed below the first) [1]: 0.36 nM
YVMGHFRWDRFGKRSYSMEHFRWGKPVGKKRRPVKVYP [γ-MSH-ACTH1-24] |  |  |  | MCR1 EC50 (nM); cAMP production, LANCE cAMP assay, CHO-MCR1 cells, cell pool A [1]: 22 nM; MCR3 EC50 (nM); cAMP production, LANCE cAMP assay, CHO-MCR3 cells, cell pool A [2]: 38 nM
ACTH1-24-natural C-terminal spacer-α-MSH (peptide) peptide: SYSMEHFRWGKPVGKKRRPVKVYPELTGQRLREGDGPDGPADDGAGASYSMEHFRWGKPV | 1.02 nM | 22 nM | > 20 nM | 
SYSMEHFRWGKPVGKKRRPVKVYPNGAEDESAEAFPLEFKR [ACTH1-39] | 0.55 nM | 18 nM | 31 nM | 
YVMGHFRWDRFGSYSMEHFRWGKPVGKKRRPVKVYP [γ-MSH-ACTH1-24 without linker and cleavage site] |  |  |  | MCR1 EC50 (nM); cAMP production, LANCE cAMP assay, CHO-MCR1 cells, cell pool A [1]: 12 nM; MCR3 EC50 (nM); cAMP production, LANCE cAMP assay, CHO-MCR3 cells, cell pool A [2]: 33 nM
YVMGHFRWDRFGRRNSSSSGSSGAGQKR [γ-MSH with linker] | 19 nM | 11 nM | > 100 nM | 
SYSMEHFRWGKPVGKKRRPVKVYPGGGGSRRKRSYSMEHFRWGKPV [ACTH1-24-proconvertase-α-MSH] | 0.92 nM | 6.1 nM | 26 nM | 
